# Assay results reported in patent publication US20080145339, “Adeno-associated virus AAV Rep78 major regulatory protein mutants thereof and uses thereof” (University of Arkansas, published 2008).
# T1: AAV Rep78 wild-type (adeno-associated virus 2, UniProt Q89268 SEQ:1-621)
# T1 sequence: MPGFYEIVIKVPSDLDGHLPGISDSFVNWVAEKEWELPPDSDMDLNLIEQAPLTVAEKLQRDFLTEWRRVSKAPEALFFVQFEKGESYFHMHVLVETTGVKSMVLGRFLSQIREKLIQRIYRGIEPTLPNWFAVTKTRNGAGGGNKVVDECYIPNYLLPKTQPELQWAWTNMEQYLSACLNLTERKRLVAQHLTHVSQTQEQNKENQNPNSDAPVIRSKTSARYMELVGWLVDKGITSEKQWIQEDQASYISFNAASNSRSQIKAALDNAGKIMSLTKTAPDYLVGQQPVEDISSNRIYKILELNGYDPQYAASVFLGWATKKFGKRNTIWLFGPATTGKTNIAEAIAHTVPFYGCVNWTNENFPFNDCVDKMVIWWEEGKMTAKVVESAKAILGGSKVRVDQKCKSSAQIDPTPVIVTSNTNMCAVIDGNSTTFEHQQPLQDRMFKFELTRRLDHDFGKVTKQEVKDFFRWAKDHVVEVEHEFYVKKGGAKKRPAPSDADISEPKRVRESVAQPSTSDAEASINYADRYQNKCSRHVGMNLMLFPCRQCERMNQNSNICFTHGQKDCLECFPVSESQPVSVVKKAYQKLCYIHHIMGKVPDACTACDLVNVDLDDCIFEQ
# Target: T1, AAV Rep78 wild-type
# Assay: EMSA; minus strand strongly recognized
# Details: tags: MBP fusion (pMALc2, amylose purified); label: 32P
binder,measurement,value
"HPV-16 p97 minus strand nt 14-106 (ssDNA, [NONE]) DNA: CATTGCAGTTCTCTTTTGGTGCATAAAATGTCTGCTTTTATACTAACCGGTTTCGGTTCAACCGATTTCGGTTACGCCCTTAGTTTTATACAT",binding result,binds
